From US20230057987A1 (published 2023)
“And” between values parts separate entries of the source, which are not always exact repeats. Equal entries are not always repeated.

T1: CT45-IP alanine variant, position 8 peptide on HLA-A*02:01 (human)
T1 peptide: KIFEMLEAV

T2: similar peptide SP-05-0005, source protein not stated peptide on HLA-A*02:01 (human)
T2 peptide: KIEEFLEAV

T3: CT45-IP alanine variant, position 1 peptide on HLA-A*02:01 (human)
T3 peptide: AIFEMLEGV

T4: CT45-IP alanine variant, position 3 peptide on HLA-A*02:01 (human)
T4 peptide: KIAEMLEGV

T5: similar peptide SP-05-0003, source protein not stated peptide on HLA-A*02:01 (human)
T5 peptide: KVTEMLVNV

T6: similar peptide SP-05-0002, source protein not stated peptide on HLA-A*02:01 (human)
T6 peptide: KIFSGLLKV

T7: similar peptide SP-05-0006, source protein not stated peptide on HLA-A*02:01 (human)
T7 peptide: KIAELLENV

T8: similar peptide SP-05-0001, source protein not stated peptide on HLA-A*02:01 (human)
T8 peptide: HIMEHLEGV

T9: similar peptide SP-05-0004, source protein not stated peptide on HLA-A*02:01 (human)
T9 peptide: KIWEWLVGV

T10: similar peptide SP-05-0009, source protein not stated peptide on HLA-A*02:01 (human)
T10 peptide: KIIDLLPKV

T11: similar peptide SP-05-0010, source protein not stated peptide on HLA-A*02:01 (human)
T11 peptide: RIFETVNSV

T12: CT45-IP alanine variant, position 4 peptide on HLA-A*02:01 (human)
T12 peptide: KIFAMLEGV

T13: similar peptide SP-05-0008, source protein not stated peptide on HLA-A*02:01 (human)
T13 peptide: KILDELEKV

T14: similar peptide SP-05-0007, source protein not stated peptide on HLA-A*02:01 (human)
T14 peptide: KIFPALCTV

T15: CT45 (CT45A1, A2, A3, A5 to A10); CT45-IP peptide on HLA-A*02:01 (human)
T15 peptide: KIFEMLEGV

T16: CT45-IP alanine variant, position 7 peptide on HLA-A*02:01 (human)
T16 peptide: KIFEMLAGV

T17: CT45-IP alanine variant, position 6 peptide on HLA-A*02:01 (human)
T17 peptide: KIFEMAEGV

T18: CT45-IP alanine variant, position 5 peptide on HLA-A*02:01 (human)
T18 peptide: KIFEALEGV


Assays:
[1] = biological target: T1, CT45-IP alanine variant, position 8 …; test: killing
[2] = biological target: T2, similar peptide SP-05-0005, source …; test: killing
[3] = biological target: T3, CT45-IP alanine variant, position 1 …; test: killing
[4] = biological target: T4, CT45-IP alanine variant, position 3 …; test: killing
[5] = biological target: T5, similar peptide SP-05-0003, source …; test: killing
[6] = biological target: T6, similar peptide SP-05-0002, source …; test: killing
[7] = biological target: T7, similar peptide SP-05-0006, source …; test: killing
[8] = biological target: T8, similar peptide SP-05-0001, source …; test: killing
[9] = biological target: T9, similar peptide SP-05-0004, source …; test: killing
[10] = biological target: T10, similar peptide SP-05-0009, source …; test: killing
[11] = biological target: T11, similar peptide SP-05-0010, source …; test: killing
[12] = biological target: T12, CT45-IP alanine variant, position 4 …; test: killing
[13] = biological target: T13, similar peptide SP-05-0008, source …; test: killing
[14] = biological target: T14, similar peptide SP-05-0007, source …; test: killing
[15] = biological target: CT45-IP-HLA-A*02 dextramer (human); test: flow cytometry, dextramer staining of TCR-mRNA electroporated T cells, gated on CD3+
[16] = biological target: T15, CT45 (CT45A1, A2, A3, A5 to A10); …; test: CT45-IP-HLA-A*02 dextramer on T cells with TCR mRNA; TCR found by tetramer sorting; full-length, on cells
[17] = biological target: CT45-IP antigenic peptide (…) in complex with HLA-A*02 presented on cells (peptide-loaded T2 cells; NCIH1703 and A375 tumor cells) (human); test: cell-based or functional assay
[18] = biological target: T15, CT45 (CT45A1, A2, A3, A5 to A10); …; test: luciferase release, 24 h, 1:1; CD8+ T cells with TCR mRNA, T2 cells with titrated peptide; full-length, on cells
[19] = biological target: T16, CT45-IP alanine variant, position 7 …; test: killing
[20] = biological target: T17, CT45-IP alanine variant, position 6 …; test: killing
[21] = biological target: T18, CT45-IP alanine variant, position 5 …; test: killing

Row | Binder | binding result [1] | binding result [2] | binding result [3] | binding result [5] | binding result [6] | binding result [7] | binding result [8] | binding result [9] | binding result [10] | binding result [11] | binding result [13] | binding result [14] | surface expression, % positive events by CT45-IP-HLA-A2*02 dextramer staining [15] | dextramer-positive events [16] [%] | EC50, half maximal killing capacity (functional avidity; CT45-IP peptide titration on T2 cells, luciferase release) [17] [nM] | EC50 of peptide [18] [nM] | binding result [19] | binding result [21] | further results
1 | TCR-10 (TCR, V domains shown) Valpha: QNIDQPTEMTATEGAIVQINCTYQTSGFNGLFWYQQHAGEAPTFLSYNVLDGLEEKGRFSSFLSRSKGYSYLLLKELQMKDSASYLCAVPAPYTGTASKLTFGTGTRLQVTL Vbeta: GVTQTPKFQVLKTGQSMTLQCAQDMNHNSMYWYRQDPGMGLRLIYYSASEGTTDKGEVPNGYNVSRLNKREFSLRLESAAPSQTSVYFCASSEGYSTYNEQFFGPGTRLTVL | recognises | no recognition | recognises | no recognition | no recognition | no recognition | no recognition | no recognition | no recognition | no recognition | no recognition | no recognition | 52.8% | 52.8 | 8.75 | 8.75 | – | – | binding result [4]: recognises; binding result [12]: recognises
2 | TCR-14 (TCR, V domains shown) Valpha: QKITQTQPGMFVQEKEAVTLDCTYDTSDQSYGLFWYKQPSSGEMIFLIYQGSYDEQNATEGRYSLNFQKARKSANLVISASQLGDSAMYFCAINGLPGSARQLTFGSGTQLTVLP Vbeta: GVAQSPRYKIIEKRQSVAFWCNPISGHATLYWYQQILGQGPKLLIQFQNNGVVDDSQLPKDRFSAERLKGVDSTLKIQPAKLEDSAVYLCASSRFVATGTSPLHFGNGTRLTVT | recognises | no recognition | – | no recognition | no recognition | no recognition | no recognition | no recognition | no recognition | no recognition | no recognition | no recognition | 11.6% | 11.6 | 17.7 | 17.7 | recognises | – | binding result [20]: recognises
3 | TCR-5 (TCR, V domains shown) Valpha: QQLNQSPQSMFIQEGEDVSMNCTSSSIFNTWLWYKQDPGEGPVLLIALYKAGELTSNGRLTAQFGITRKDSFLNISASIPSDVGIYFCAGGYNYGQNFVFGPGTRLSVLP Vbeta: GVTQTPKHLITATGQRVTLRCSPRSGDLSVYWYQQSLDQGLQFLIQYYNGEERAKGNILERFSAQQFPDLHSELNLSSLELGDSALYFCASSAGLAGGYEQYFGPGTRLTVT | – | no recognition | recognises | no recognition | no recognition | no recognition | no recognition | no recognition | no recognition | no recognition | no recognition | no recognition | 55.5% and 61.1% | 61.1 | 1.32 | 1.32 | – | recognises | binding result [12]: recognises
4 | TCR-12 (TCR, V domains shown) Valpha: QLLEQSPQFLSIQEGENLTVYCNSSSVFSSLQWYRQEPGEGPVLLVTVVTGGEVKKLKRLTFQFGDARKDSSLHITAAQPGDTGLYLCAGGLSDSYDKVIFGPGTSLSVIP Vbeta: EVTQTPKHLVMGMTNKKSLKCEQHMGHRAMYWYKQKAKKPPELMFVYSYEKLSINESVPSRFSPECPNSSLLNLHLHALQPEDSALYLCASSQGVGQEYGYTFGSGTRLTVV | recognises | no recognition | recognises | no recognition | no recognition | no recognition | no recognition | no recognition | no recognition | no recognition | no recognition | no recognition | 20.1% | 20.1 | 47.5 | 47.5 | – | recognises | –
5 | TCR-6 (TCR, V domains shown) Valpha: QKEVEQDPGPLSVPEGAIVSLNCTYSNSAFQYFMWYRQYSRKGPELLMYTYSSGNKEDGRFTAQVDKSSKYISLFIRDSQPSDSATYLCAMSGNSGARDYGNNRLAFGKGNQVVVIP Vbeta: EVTQTPKHLVMGMTNKKSLKCEQHMGHRAMYWYKQKAKKPPELMFVYSYEKLSINESVPSRFSPECPNSSLLNLHLHALQPEDSALYLCASATWEEAGPYNEQFFGPGTRLTVL | recognises | no recognition | – | no recognition | no recognition | no recognition | no recognition | – | no recognition | no recognition | no recognition | no recognition | 2.9% | 2.9 | 3.25 | 3.25 | recognises | recognises | –
6 | TCR-7 (TCR, V domains shown) Valpha: QTVTQSQPEMSVQEAETVTLSCTYDTSESDYYLFWYKQPPSRQMILVIRQEAYKQQNATENRFSVNFQKAAKSFSLKISDSQLGDAAMYFCTFRYGGATNKLIFGTGTLLAVQP Vbeta: GVIQSPRHLIKEKRETATLKCYPIPRHDTVYWYQQGPGQDPQFLISFYEKMQSDKGSIPDRFSAQQFSDYHSELNMSSLELGDSALYFCASRGGWAETPDTQYFGPGTRLTVL | recognises | no recognition | – | no recognition | no recognition | no recognition | no recognition | no recognition | no recognition | no recognition | no recognition | no recognition | 53.3% | 53.3 | 0.48 | 0.48 | – | recognises | binding result [4]: recognises
7 | TCR-11 (TCR, V domains shown) Valpha: IQVEQSPPDLILQEGANSTLRCNFSDSVNNLQWFHQNPWGQLINLFYIPSGTKQNGRLSATTVATERYSLLYISSSQTTDSGVYFCAVNTGTASKLTFGTGTRLQVTL Vbeta: GVTQTPKFQVLKTGQSMTLQCAQDMNHNSMYWYRQDPGMGLRLIYYSASEGTTDKGEVPNGYNVSRLNKREFSLRLESAAPSQTSVYFCASSPRGQGRSYEQYFGPGTRLTVT | – | no recognition | – | no recognition | no recognition | no recognition | no recognition | no recognition | no recognition | no recognition | no recognition | no recognition | 0.53% and 6.6% | 6.6 | 59.5 | 59.5 | recognises | – | –
